Reference: paper PMC3542820

Target: T1, Rfa2-His from WT cells (HT41), dephosphorylated G1 form (Candida albicans, UniProt Q59Z33 1-272)
T1 sequence: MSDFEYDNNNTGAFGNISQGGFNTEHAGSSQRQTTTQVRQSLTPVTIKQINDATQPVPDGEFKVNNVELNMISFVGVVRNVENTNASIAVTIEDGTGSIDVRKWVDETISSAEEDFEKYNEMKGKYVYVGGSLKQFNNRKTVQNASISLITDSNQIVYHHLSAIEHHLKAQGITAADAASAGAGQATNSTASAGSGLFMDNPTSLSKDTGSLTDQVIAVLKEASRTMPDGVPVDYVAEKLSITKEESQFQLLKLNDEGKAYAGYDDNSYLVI
Test: EMSA

B1: FITC-dsDNA 30 bp (dsDNA)
DNA 1: CCCCTCTCCTTCTTGGCCTCTTCCTTCCCC
DNA 2: GGGGAAGGAAGAGGCCAAGAAGGAGAGGGG
  binding result: binds
